Measurements as given in the domain aggregation screens of Martell et al. (2025).

Experiment: soluble fraction after stress (log2 fold change); higher = more stays soluble; pooled small domains, quantitative proteomics
Settings: stress: pH 4
Method in brief: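 Following acid stress at pH 4, the amount of each small protein domain still soluble was measured in pooled custom libraries by high-throughput quantitative proteomics. Its fold change, on a log2 scale, is higher when more of the domain stayed soluble. This fold change is taken as a measure of aggregation propensity.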

HMHAGQIISQKIKESGISISHVAKHLKVQRATLYNLFEREVWPAHRLRTIEALLHIDLSDLYP
soluble fraction (log2): -1.52

HMHANAALTPRQRLRLAQKIVDEEWTVAAAADYFRVSWPTAAKWARRYVELGEAGMADRSSRP
soluble fraction (log2): -0.641

HMHDEKHHQLANEIARKWAALRGNRDFAAADELKNLAAEAGVELQATKQAVGQGALAKLKENFDPVKLEAL
soluble fraction (log2): 0.22

HMHDLDALTGLSGEARSKVYEEGSVFVAGEMWSAKSDAVIPAGSSIRVVRREGFILVVEKDS
soluble fraction (log2): -1.97

HMHDYTTIIGVIELRLNKISYDNVQKRYRIGRSGISLIMERYRDSGLSLDDLKQMPAEKVVNLIYPKD
soluble fraction (log2): -0.108

HMHDYYDSIDAVTHDKSYESNLVFALKLGYTETQLQKALLKLGKKAREDQILEELIRIQKSSKA
soluble fraction (log2): ≥ 0.43

HMHEGNWTLPNPMPIGTTLTLPEHSRLYISNLAGQRVFETSATSVEIPLLPKGTYLLRLETMNGHTTRKIL
soluble fraction (log2): 0.00873

HMHELKIEKVAEAPNGAMRLLLSDGSEWVLGVKSWNRLNLSLEKILDVNVLRALEKESQYHLLRTKALEL
soluble fraction (log2): 0.171

HMHFIMEYRIRAYVDELFESAPRTQRAYELKIELTQNLIDKYYALVSEGKSEQDAYNLTVMSIGDVREL
soluble fraction (log2): -0.959

HMHGEAVVVPNVKGLPMRQAENEIYKQSLKAVAIDSSYVKGMPPGAILEQNPAGGSKVKKGRTVYLTINMD
soluble fraction (log2): 0.0278

HMHGERVVTAGQTVRVVFTSNGLQVSSEGKALAAGAVGDDIQVRAASGKVIRGTVTGPGVVQV
soluble fraction (log2): ≥ 0.43

HMHGLNQNKPIPIADIVNSVNNYLTSLGKKTITDNSVLSNLKKAAKYLNTAYNLVLRPDSLNMTVTLL
soluble fraction (log2): 0.22

HMHIMINPDQLSPEQIQSIRTWAEEGLDLNAIQKRLHEDLNIKLTFMDTRFLLQDLDIRIRQPEPEPEAEQ
soluble fraction (log2): -0.67

HMHINLEGLKKIDFRKKIGFLFGSEASGLSNKEVSYANYTLQIPTNINFKSLNLSHSLIIIAQFISSLLNS
soluble fraction (log2): 0.126

HMHKIRRQTKITKSLLDQIEGIGSSRKKALLNHFGSAKAVGEAGETDLGTVKGISNSLAKKIYDFFHAT
soluble fraction (log2): 0.281

HMHLDIGQLVQRILADIQVGKLADGQRKLPAEPVLMERYQVTRYTLRQALKQLSNMGYTYQMHGIGTFVRQ
soluble fraction (log2): -0.211

HMHLKDEHGLTPKQRAFADEYVITLNATVSYKKIYSVKRDSVASTNGSRLLGNANVKAYIDKRLEE
soluble fraction (log2): 0.172

HMHLKRQEAINLGAYLLGAELRIHRLSLEELGSERIDEMLAAINYKTLDDLLADIGLGNRPARFVARQLG
soluble fraction (log2): -1.65

HMHLLGASIAAYRKKAGMTQEDLGRALFVSGQAVSRWERGGTPDSDMLPKIADVLGISLDTLFGRS
soluble fraction (log2): -0.269

HMHLRYTYIYDNENRVTSKEASKWDSTQEAWVPYFKMNVSYVNNEVELSYARWNSKSNAYDSSIKKTI
soluble fraction (log2): -0.66

HMHLTNIPKGFTPSFDTKQWIVEEFGERYNYDNELKIFINHYRASGTTKSDWQYAFRSWLLRAKKFT
soluble fraction (log2): -0.448

HMHLTRYLHTMIRAANLDDTLDFFVEKLGLIEAYRYSNEAGRFTLVFLSAPDDLESAQSRQAPLVEITYN
soluble fraction (log2): -0.329

HMHLYDMYNLTEKEISIIRLIANGLNNKEISQELFLSEGTIKNNITNILAKLELRDRTQLAIFAFKNKIVI
soluble fraction (log2): -0.647

HMHMELHEKIRLARELNKWSQEEVAEKLEMSPSGYAKIERGETALNIPRLEQIAEIFNIDIWELVKA
soluble fraction (log2): -1.48

HMHMHTADDFKQLAKHTSNGRLRTRYLALYHFKKGETRTQIAAYLGVARGSVNTWVSNYLAYGLEGLQS
soluble fraction (log2): -0.0479

HMHMIDDYLARIGQLIRDARQHRGWTQVQLAEALGTSQSAVNRIERGNQNISLEMIARIGEALGSEIVSLG
soluble fraction (log2): -0.64

HMHMKTIEWDSLVLIMYKDMKYLKRINEGQSFHGKGGMLNYADLIGKTYGIRFGQYEIFEPSLEDIVMYG
soluble fraction (log2): -0.569

HMHMSKKLADSISALRKKNGLSQEQLAEKIGISRQTVSNWERGIATPDVETLNLISKLFDEDLSVMING
soluble fraction (log2): 0.043

HMHNISQTGRRIAGMTQERWAEALDISVESVRLYESGRGMPSDDVATRMVEVSGAPVLGYWH
soluble fraction (log2): -1.08

HMHNPSYDMSKDVDILVMKFRDYNNLTDDEARFLLDKAKDAYYNTGKEILSDNEYDTLEKSLGQE
soluble fraction (log2): -1.17

HMHPEPDPVLFIDGKEYPYDKLSELDETRVQSMTILPKKSAVKKYGDKYANRSIMEITLKKEN
soluble fraction (log2): 0.22

HMHPNPLTEQEIAVLKGIAQGLSNQEIADQLYLSNGTVRNYVTNILSKLDAGNRTEAANIAKESGW
soluble fraction (log2): -0.279

HMHPSNQELTKVLAQGSELVLAQKYIEASQIFTRVIEIDQTWAEAWNKRATVFYLLQNYEASQKDIDEV
soluble fraction (log2): -0.135

HMHQKELLNLSYKEAKRYILDDFERVFFTNLLRKTGGNVSRAAQLAQVHRKNLYVKLTELGIDPRQFG
soluble fraction (log2): -0.585

HMHQLQLDSRSRLHMTGVIEVESFDEATIVLTTTRGTLIVRGENLHLQLLRLDGGEVLVDGTVDSLSYE
soluble fraction (log2): -1.22

HMHQPPDLDDFEAFVGRVKPALLQALVATYGPVDGREATVDALSWAWEHWDRLADVDHPVGYLYRV
soluble fraction (log2): -0.189

HMHRFAVLDTVREVAAGGVAATLSIGVGRDADSFDALFKNASMALEMALSRGGDQAVVKDRMNFQFYGG
soluble fraction (log2): -0.0192

HMHRGEIVDGVIASVNPRSILIDIGGKSDALVHPRELERMSDEDLRSLKPGQDVSVYVIETDSDGTMLVSL
soluble fraction (log2): -0.86

HMHSEISGGSKDPFRFMPHLGVEDIHAETDRLSGSGVEFIREPDQESWGGWVATFKDPDGNILQLLQL
soluble fraction (log2): -0.0468

HMHSQVFTDPDKAKNAVVKLGAPLVVKADGLALGKGVIIAQNPQAAKEAVASVGSSGISSISVT
soluble fraction (log2): 0.22

HMHTDDDGITEAFPHLRLLSLGEDILDLLEKSRFIRKLNNELVYYVVDFREQNSIDGRRYHPSIYHNL
soluble fraction (log2): -1.31

HMHTGEVVNGKVIDVKEDQIILNVGFKSDGIITRSEYSNDNSLDLRTVVNVGDDMEAKVLKINDGEGQVLL
soluble fraction (log2): -0.343

HMHTGLAELTDRERDVLRLIATGMTNAAIGSALAYSPSTIRADTVSIYRKLEVRGRAEAAAVAVAAGLTQP
soluble fraction (log2): 0.123

HMHTPSGALLSAIEKEWGSFDNFKKEFTTAATSLFGSGWVWLAKDKKGKLYILSENNAGNPITKGYTPILG
soluble fraction (log2): -0.432

HMHVLNEEYYNRIKAIQFTMNHDDGNSLNDIEKSDIILLGVSRTSKTPTSIYLANRGLRTSNIPLINEK
soluble fraction (log2): -0.316

HMHVSLADQAYKTIRTNILNLTYPPGTQLTEAKLASDLNMSRSPVRTAIKMLQADGLLVSDYYKSMTVK
soluble fraction (log2): ≥ 0.43

HMHVYSYPAAVKIKNAVGREMMVTLLGRSGTHVQFARQDGEEFVYPISSLDLAAQTLISKYPNDGIKN
soluble fraction (log2): 0.0689

HMIAALEGKQAMVLDQVSLHHGQVKLGGEVWTARPLNDQDVYEPGDRVTVMRIDGATAVVWRN
soluble fraction (log2): -0.0548

HMIAASPVGGIDRVLELLDARGQRVAWIEASGTEGGQRLRLGWIDAQGAERHGAWVPWSADDLLLYA
soluble fraction (log2): -0.547

HMIAASQVLRDARQRSRLTQAELGRRADVPQSVISAYESARREPSVDMLARLVAAAGFDLRIGLTP
soluble fraction (log2): -0.377

HMIADPLVINKLMDSMALAINDYNPDSVEPVLDELRQYFSENQLRELSKAMDDFDFDEALNALTLLRT
soluble fraction (log2): -0.619

HMIALKNLREEKRMTQAELSKDLEISPSAIGMYEQGRRVPDVSTLKKISAYFNVSIDYLLGNSTSKDI
soluble fraction (log2): -0.0244

HMIALLRLGTAPDIKAQAPLATILARHNGEMSAKDLWQRFGGEIDTFYAQLKTEVAHGWILEPT
soluble fraction (log2): 0.0698

HMIAVLKQGVSKQQVENLITWFRSRGLDVHISEGKFQTIIGLIGDTSKVDIDLLNGLEIIESVKRI
soluble fraction (log2): -0.832

HMIAVSQEQIKQIIVDDPSFHDANGKFSQALLTQYLNQRRMSEDQFVEEIRDQFLFQNLQNLVQNG
soluble fraction (log2): -0.623

HMIDAAHLEKAILSLPEGARAVFVLIETEGFAHREVAELLGISEGTSKSQLNYAKKRLREILV
soluble fraction (log2): -0.0621

HMIDAKTTLQELTQKSGKKPEYRLIKIEGPDHLRRFTVEVFIDGQSMGTGTGHSKKEAEQNAANFALKNLQ
soluble fraction (log2): ≥ 0.43

HMIDEQDLKKYILISTSVEELTDYLGATDRMLYDYLYSLKHVGQYWQLNERFLLDLYKLPNLVIVDKEDLE
soluble fraction (log2): -0.351

HMIDFDEQGNLWVHEMGPRHGDELNLIEKARNYGYPTVSQGDHYSGVKISNHEDIPIFKSPEKAWVPAISP
soluble fraction (log2): -0.373

HMIDFDHADIERLWNSIIHYVPERQKLDFAIDFIKSLEDIGVEHDVLRGSAELDPKLEEAVNTVFE
soluble fraction (log2): -0.315

HMIDIIEYIISEESKGLRADQGIALQNPQYSRSLIQKWIKKGSVLVNNKIIRTKEILLEGDKISITPEENI
soluble fraction (log2): -2.29

HMIDKIRYPELIMKLAHQQGGTIKRRDVEQLLHLQTKQAYRELSKLVDAGELVSVGRGPGAHYEVS
soluble fraction (log2): -0.0885

HMIDQNEDLLSGYIDEVLSQNPDKVNEYLKGKSGLIGFFMGQIKQKSATALDAALLKSQLETALEKLRIK
soluble fraction (log2): -0.00948

HMIDQSVVVQYLSKLTNTPYLKTREITMGEPYMQFERGEIKFQEYVEDIRALLPGGDRIDADRLRDIWMNS
soluble fraction (log2): -0.721

HMIDRADLWEALRKLPEDTLKLFSLHFEKGMTHDEISKHTDIPVGTVKTKLRRGLIEARKLAREF
soluble fraction (log2): -0.394

HMIDTPQELARLLRLLDEQNFEAEILFHKLRPDLLHLWSKEHVTRIAEALDAFDYQMALTLLNASP
soluble fraction (log2): -2.15

HMIDVNLVQRGKTLHLRRRVPMRYSSVERREYVSISLKTDSEAEARRKAGAAWDQMIAAWEARLA
soluble fraction (log2): -0.12

HMIDYTDTSAVKDSAAVAGRVREMINEGVPIADVNAFIRSASENGLISDDSARRLRYMNDSR
soluble fraction (log2): ≥ 0.43

HMIEDMTINIEERLSLNGDIKKSEYILQYIKPDFIRKVILSPELNKGEIYIYDSKKKVMYLPLFDQVSEEI
soluble fraction (log2): -1.09

HMIEINNLEDLKLMKEFILKNGKYGFGVFVGGKYIGLSDIGSVNSFKDTLGLPVVSLGNDDFKRFTEAH
soluble fraction (log2): -0.653

HMIEQEQAFLEQVLKKYSQEELVLTVGSRTLVKYSAGQLERLLEHYPHVRLASSPVNGEAGFLLSRG
soluble fraction (log2): -0.784

HMIEQIELEARVPDELGGQRLDQVAAQMFDDFSRSRLTGWIRDGSLTADGQQLRPRDIVYGGTLLQLKAEQ
soluble fraction (log2): -0.151

HMIESFQNGLVEHDQFTRPNPWVTPNFSKIEVPSILLSGKHADIDLWKHQNSIENTKKNRPDLFKNYLKKN
soluble fraction (log2): -0.357

HMIEYILDYLANRGVYAASQGEQQQMEDGIARYLQENGLEDGNTGAYYQKYVSNHLQQISASDLKAYFLN
soluble fraction (log2): -1.49

HMIEYYDDEELDVFKGRQSDNYTNKEIEQFAEVLHTMRQDEVKGWNRSLILRSINLPDSLKDEVIMLI
soluble fraction (log2): -2.53
